Results on 167 variants are retold here after the RNAGym collection of RNA variant scans (doi:10.7554/elife.80360).

To fix the notation:
B1: CPEB3 Ribozyme (parent)
chain: GGGGGCCACAGCAGAAGCGUUCACGUCGCGGCCCCUGUCAGAUUCUGGUGAAUCUGCGAAUUCUGCUGU

Variants of B1 are the subject of the data set. Kind of data set: self-cleavage, relative activity (ratio to wild type); higher = more cleavage; co-transcriptional.
As for C33U U62G, the self-cleavage turned out to be 0.845. The same measure for C33U U62C: 0.847; for C33U U62A: 0.956. C35U A60C: the self-cleavage worked out at 0.368.

Take C35U A60U: the self-cleavage came out at 0.395. Turning to C35U A60G, the self-cleavage stood at 0.522.

With C34A U46C, the self-cleavage stood at 0.829. With C34A U46A the figure was 0.848.

For the variant C33G U62C, the self-cleavage was found to be 0.358.

For the variant C35A U61C, the self-cleavage was found to be 0.27.

For C33U U55C, the self-cleavage was 0.685.

On to C33U U55G, for which the self-cleavage was determined as 0.8. For C33G G68C, the self-cleavage was determined as 0.877. With C33G G68U the figure was 0.861; with C34A G48A, 0.862. With C34U G48A the figure was 0.986; with C34U G48C, 0.974; with C34U U43C, 0.892. In the case of C34U U43A, the self-cleavage turned out to be 0.967. With C34U G68U the figure was 1.04; with C33G U38C, 0.45.

For the variant C33G U38G, the self-cleavage is 0.324. With C35G G48C the figure was 0.531; with C35U C39U, 0.85; with C32U U38G, 0.294. The same measure for C34A U55A: 0.529; for C33A U62G: 0.559. The same measure for C33A U62C: 0.584; for C35U A52C: 1.01. With C33U G41A, the self-cleavage turned out to be 0.827. With C33G U67A the figure was 0.857. With C33G U67G the figure was 0.93; with C35A A51U, 0.223; with C34A U36C, 0.568.

Turning to C34A U36G, the self-cleavage amounted to 0.316. The same measure for C33A G48A: 0.95; for C35A U36A: 0.198. For the variant C35A G65C, the self-cleavage is 0.191. With C33U G68A the figure was 1.01. With C33U G68U the figure was 1.02; with C34U U53A, 0.975. Turning to C33G A40G, the self-cleavage was found to be 0.648. The same measure for C32U U55C: 0.837; for C34U U67A: 1.01. With C34U U67C the figure was 1.01. Consider C32U U53C, for which the self-cleavage is 0.875. With C35G U36C the figure was 0.36. The same measure for C35G U36A: 0.21. With C35G U36G the figure was 0.189; with C33U C45U, 0.976.

With C34G U38G, the self-cleavage is 0.202. Take C34G U38C: the self-cleavage turned out to be 0.441. With C34U G58U the figure was 1; with C34U G58C, 0.995. The same measure for C34U G58A: 0.92; for C35A A60U: 0.181; for C34A U38G: 0.232. The same measure for C34A U38C: 0.492. As for C34A U38A, the self-cleavage came to 0.846. With C33A C34U, the self-cleavage is 0.489. The same measure for C35G G47A: 0.477. The same measure for C34A U61G: 0.426; for C35G U53A: 0.407; for C35U C57U: 0.373. The same measure for C35U C57G: 0.302; for C34G U36A: 0.192.

As to C33G C54A, the self-cleavage worked out at 0.369. C34G G50A: the self-cleavage was 0.707.

Consider C33A U43A, for which the self-cleavage came out at 0.311. The same measure for C33A G47U: 0.961.

As for C33G A51C, the self-cleavage amounted to 0.335. The same measure for C34A A60G: 0.44; for C34A A60C: 0.313.

As to C34A A60U, the self-cleavage was determined as 0.292.

Consider C33G U46A, for which the self-cleavage is 0.438. The same measure for C33G A42G: 0.522; for C33G A42C: 0.314; for C34A A51U: 0.521.

Take C34A A51C: the self-cleavage amounted to 0.615. The same measure for C33A G58A: 0.811; for C34U U36A: 0.228. Regarding C33A U69A, the self-cleavage is 1. With C33A G56A the figure was 0.758; with C33A C63U, 0.851; with C33A C63A, 0.611. The same measure for C35U G37C: 0.22. With C35U G37U the figure was 0.258; with C33A A60C, 0.346; with C34G C63A, 0.424. Regarding C34G C63U, the self-cleavage was found to be 0.666. With C34A G37C the figure was 0.262. Take C33A U61G: the self-cleavage was determined as 0.5.

Consider C34G U53A, for which the self-cleavage worked out at 0.569. With C33A A40C the figure was 0.339; with C33A A40U, 0.375. With C33G C34G, the self-cleavage turned out to be 0.217. The same measure for C33G C34U: 0.671; for C33G C34A: 0.253. The same measure for C33A C45G: 0.665; for C33A C45A: 0.523. With C34G A42U the figure was 0.544. C34G A42G: the self-cleavage is 0.637. With C34A G50A the figure was 0.822; with C34A G50C, 0.773; with C34A U44A, 0.511. Regarding C33G A59U, the self-cleavage is 0.362. Take C33G A59G: the self-cleavage is 0.516.

With C34G U44A, the self-cleavage stood at 0.579. The same measure for C35A A40U: 0.231; for C35A A40G: 0.212. The same measure for C35A A40C: 0.288; for C34U G41U: 0.901. With C34U G41C the figure was 0.729. Consider C34A A52U, for which the self-cleavage was determined as 0.664.

C33A C57U: the self-cleavage is 0.343.

For C33G C35U, the self-cleavage was determined as 0.184. With C35G U55C the figure was 0.33; with C35G U55G, 0.238. Turning to C35G U55A, the self-cleavage is 0.267. The same measure for C34A U49G: 0.865. As for C34G C57U, the self-cleavage amounted to 0.348.

C34G C57A: the self-cleavage amounted to 0.311.

As for C34G C66U, the self-cleavage stood at 0.643. With C34G C66A the figure was 0.411; with C33U G58C, 1.01; with C33U G58U, 0.974. The same measure for C33U G58A: 1; for C34A U43C: 0.496. With C34U G37A the figure was 0.224. For the variant C35A C63U, the self-cleavage came out at 0.251. With C35A C63G the figure was 0.22; with C35G A59C, 0.307. With C35G A59G the figure was 0.488. The same measure for C33U U36A: 0.218. As for C35A G50A, the self-cleavage was determined as 0.216. With C35A G50C the figure was 0.252; with C35A G48A, 0.248; with C35A G48C, 0.281. With C35G A52G the figure was 0.458; with C33U G37U, 0.245. On to C34G G68A, for which the self-cleavage was 0.931. The same measure for C35A: 0.281. With C35G the figure was 0.478; with C35U, 0.973. With C33G the figure was 0.668. C33U: the self-cleavage worked out at 0.994. With C33A the figure was 0.916. The same measure for C35U C45A: 0.985; for C35U C45U: 0.994; for C34U U38G: 0.227. C34U U38A: the self-cleavage is 0.935. With C34U U38C the figure was 0.962.

On to C35A C39A, for which the self-cleavage turned out to be 0.209. The same measure for C34G U46C: 0.625; for C33U U67C: 0.971; for C33G U49G: 0.692.

Turning to C35G C57U, the self-cleavage came out at 0.287. Turning to C33U A52U, the self-cleavage was 0.922. With C33U A52G the figure was 0.993; with C33U G50U, 1. The same measure for C33A U46A: 0.617; for C33A U46C: 0.847. The same measure for C33A U46G: 0.737; for C35G U67C: 0.486; for C35G C54U: 0.497. Take C35G C54A: the self-cleavage was 0.305. With C35U G41A the figure was 0.635.
